Measurements as given in PMC2566870.

What was measured:
Test in all cases: SEC
[1] = molecular target: Hera_CTD (C-terminal domain of Hera, amino acids 370-511) (Thermus thermophilus HB27)
[2] = molecular target: Hera_E115C/R260C (Thermus thermophilus HB27)
[3] = molecular target: Hera_core (aa 1-365) (Thermus thermophilus HB27)
[4] = molecular target: Hera_core_E115C/R260C (Thermus thermophilus HB27)
[5] = molecular target: Thermus thermophilus DEAD box helicase Hera, wild-type (Thermus thermophilus HB27) (UniProt Q72GF3)

“Hera_CTD (C-terminal domain of Hera, amino acids 370-511) (domain or fragment)” showed a stoichiometry N [1] of 2.
Substance Hera_E115C/R260C (enzyme) has a stoichiometry N [2] of 2.
Substance “Hera_core (aa 1-365) (domain or fragment)” has a stoichiometry N [3] of 2.
“Hera_core_E115C/R260C (domain or fragment)” gave a stoichiometry N [4] of 2.
“Thermus thermophilus DEAD box helicase Hera, wild-type (from UniProt Q72GF3 1-517) (enzyme)” showed a stoichiometry N [5] of 2.
